From patent publication US20090054344A1

Target: αvβ3 integrin on C-PAE cells (bovine) (UniProt P80746)
Assay: C-PAE attachment to plates coated with 293-produced Tumstatin; 10 µg/ml peptide; competitor is the Tumstatin coat

αvβ3 integrin on C-PAE cells (bovine), sequence (P80746 31-1048): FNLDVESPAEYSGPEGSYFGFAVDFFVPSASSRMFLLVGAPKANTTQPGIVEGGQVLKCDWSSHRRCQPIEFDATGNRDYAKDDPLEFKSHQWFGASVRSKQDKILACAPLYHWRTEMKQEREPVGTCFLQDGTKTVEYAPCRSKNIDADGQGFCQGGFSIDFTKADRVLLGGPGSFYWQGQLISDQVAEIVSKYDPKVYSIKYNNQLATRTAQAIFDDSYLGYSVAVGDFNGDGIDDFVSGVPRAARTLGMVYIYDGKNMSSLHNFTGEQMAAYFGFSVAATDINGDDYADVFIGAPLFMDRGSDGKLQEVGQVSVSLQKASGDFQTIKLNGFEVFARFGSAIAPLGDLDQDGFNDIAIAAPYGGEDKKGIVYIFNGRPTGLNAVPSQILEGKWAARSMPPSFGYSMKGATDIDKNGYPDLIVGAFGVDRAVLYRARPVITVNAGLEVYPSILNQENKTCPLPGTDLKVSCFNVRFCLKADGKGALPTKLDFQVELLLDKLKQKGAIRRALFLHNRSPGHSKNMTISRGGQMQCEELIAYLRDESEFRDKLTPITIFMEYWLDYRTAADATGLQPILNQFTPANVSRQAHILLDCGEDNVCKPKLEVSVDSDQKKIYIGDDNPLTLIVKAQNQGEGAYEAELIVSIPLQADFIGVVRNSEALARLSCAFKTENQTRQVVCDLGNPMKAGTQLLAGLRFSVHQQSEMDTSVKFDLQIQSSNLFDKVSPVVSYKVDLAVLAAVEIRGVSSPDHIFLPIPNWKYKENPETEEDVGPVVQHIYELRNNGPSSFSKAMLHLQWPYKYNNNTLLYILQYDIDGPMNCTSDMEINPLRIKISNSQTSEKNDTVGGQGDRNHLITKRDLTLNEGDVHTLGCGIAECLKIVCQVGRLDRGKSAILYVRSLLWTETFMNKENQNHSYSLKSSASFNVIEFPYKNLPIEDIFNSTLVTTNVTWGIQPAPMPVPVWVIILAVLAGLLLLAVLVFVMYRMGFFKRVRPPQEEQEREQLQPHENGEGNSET

In the case of LQRFTTMPFLFCNVNDVCNF [T3 peptide], the % inhibition of cell attachment is reported as 46.4%.
